According to patent US6759384 (AVENTIS PHARMACEUTICALS, dated 2004):
Starred links: 1 amine or outer side, 2 acyl side, 3 side chain; linkers in the order of their positions; H or OH if unused. Non-standard residues stand in square brackets, D forms with d. No end group written: not given here. *: point of attachment. (pOH)C6H4‑OCH(CH3)CO = N-terminal acyl cap: 4-hydroxyphenyl-O-CH(CH3)-C(=O)- (2-(4-hydroxyphenoxy)propionyl), CC(Oc1ccc(O)cc1)C(=O)*; (pOH)C6H4‑CH2CHOH‑CO = N-terminal acyl cap: 4-hydroxyphenyl-CH2-CH(OH)-C(=O)- (4-hydroxyphenyllactyl); (iBu)Y = N-alpha-isobutyl-tyrosine, CC(C)CN([C@@H](Cc1ccc(O[*:3])cc1)C(=O)[*:2])[*:1]; Orn(N^δ-C3H7N) = ornithine-derived dimethylamidinium (N-delta-C3H7N); Dab(N^γ-C3H7N) = Dab-derived dimethylamidinium (N-gamma-C3H7N); dTyr(Me) = COc1ccc(C[C@@H](N[*:1])C(=O)[*:2])cc1; dNMeY = CN[C@H](Cc1ccc(O)cc1)C(=O)O; Tos = Cc1ccc(S(=O)(=O)*)cc1; Tfa = O=C(C(F)(F)F)*; Sar = CNCC(=O)O

Molecular target: human factor Xa (Enzyme Research Laboratories, Inc.) (human, UniProt P00742 41-179; P00742 235-488, limits assumed)
Sequence (P00742 41-179 limits assumed, chain 1 of 2): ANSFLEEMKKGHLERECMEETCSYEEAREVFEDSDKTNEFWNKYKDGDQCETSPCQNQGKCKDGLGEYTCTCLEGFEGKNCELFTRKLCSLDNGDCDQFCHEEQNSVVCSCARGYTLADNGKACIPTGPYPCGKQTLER
Sequence (P00742 235-488 limits assumed, chain 2 of 2): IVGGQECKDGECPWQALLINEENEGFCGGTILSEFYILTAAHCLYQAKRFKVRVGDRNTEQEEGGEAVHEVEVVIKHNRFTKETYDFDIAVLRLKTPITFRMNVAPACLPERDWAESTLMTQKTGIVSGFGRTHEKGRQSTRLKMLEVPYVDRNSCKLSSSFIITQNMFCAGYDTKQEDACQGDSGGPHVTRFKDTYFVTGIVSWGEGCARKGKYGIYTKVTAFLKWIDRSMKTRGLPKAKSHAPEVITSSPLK
Test: chromogenic FXa inhibition
Procedure, shortened: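 Human FXa (0.5 nM) preincubated 10 min with inhibitor in TBS-P (pH 7.8, 200 mM NaCl, PEG-8000), then S-2765 added (140 μM). Initial hydrolysis rate read at 405 nm, 25° C.; IC50 by linear regression of relative rate vs log concentration.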

B1: Tos-G-I-R-V-Sar-NH2 (peptide)
peptide: Tos-GIRV[Sar]-NH2
SMILES: CC[C@H](C)[C@H](NC(=O)CNS(=O)(=O)c1ccc(C)cc1)C(=O)N[C@@H](CCCNC(=N)N)C(=O)N[C@H](C(=O)N(C)CC(N)=O)C(C)C
Binder B1 has a Ki of less than 100 µM.

XIRLP (N-term Ac; N-(2,3-DiMe-nPentyl) on Y1; Y1=Y(SO3H); C-term NH2) [Ac-(2,3-DiMe-nPentyl)Y(SO3H)-I-R-L-P-NH2] was tested, and the Ki was less than 100 µM.

For YIREFSDY-NH2 [Y-I-R-E-F-S-D-Y-NH2], the Ki was less than 100 µM.

With YIRYRNPI-NH2 [Y-I-R-Y-R-N-P-I-NH2] the Ki was less than 100 µM.

B2: w-L-R-L-A-NH2 (peptide)
peptide: [dW]LRLA-NH2
modifications: N-terminus assumed
SMILES: CC(C)C[C@H](NC(=O)[C@H](N)Cc1c[nH]c2ccccc12)C(=O)N[C@@H](CCCNC(=N)N)C(=O)N[C@@H](CC(C)C)C(=O)N[C@@H](C)C(N)=O
Binder B2 has a Ki of less than 100 µM.

For Tfa-[dY]IRLP-NH2 [Tfa-y-I-R-L-P-NH2], the Ki was less than 100 µM.

TFGYIRKA-NH2 [T-F-G-Y-I-R-K-A-NH2] was tested, and the Ki was less than 100 µM.

Binder WLRLA-NH2 [W-L-R-L-A-NH2] has a Ki of less than 100 µM.

Work on XIRLP (N-term Tfa; Y1=Y(Me) O-methyl tyrosine; C-term NH2) [Tfa-Y(Me)I-R-L-P-NH2] yielded a Ki of less than 100 µM.

YIRLAAF-NH2 [Y-I-R-L-A-A-F-NH2] gave a Ki of less than 100 µM.

In the case of YIRVAQLY-NH2 [Y-I-R-V-A-Q-L-Y-NH2], the Ki is reported as less than 100 µM.

Binder WIRNP-NH2 [W-I-R-N-P-NH2] has a Ki of less than 100 µM.

In the case of WIRTP-NH2 [W-I-R-T-P-NH2], the Ki is reported as less than 100 µM.

Work on Tfa-[(iBu)Y]I[Dab(N^γ-C3H7N)]LP-NH2 [Tfa-(iBu)Y-I-Dab(N^γ-C3H7N)-L-P-NH2] yielded a Ki of less than 100 µM.

WLRLAGGGGG-NH2 [W-L-R-L-A-G-G-G-G-G-NH2] gave a Ki of less than 100 µM.

WLRVAGGGGG-NH2 [W-L-R-V-A-G-G-G-G-G-NH2] was tested, and the Ki was less than 100 µM.

With XIRLP (N-term Ac; N-(3,5,5-Me-3-nHexyl) on Y1; C-term NH2) [Ac-(3,5,5-Me-3-nHexyl)Y-I-R-L-P-NH2] the Ki was less than 100 µM.

With XIRLP (Y1=Y(3,5-I); C-term NH2) [Y(3,5-I)-I-R-L-P-NH2] the Ki was less than 100 µM.

For XIRLP (N-term Ac; N-(3,3-DiMe-nBu) on Y1; C-term NH2) [Ac-(3,3-DiMe-nBu)Y-I-R-L-P-NH2], the Ki was less than 100 µM.

For XIRLP (N-term Ac; N-(1,2,3,6-4H-Bzl) on Y1; C-term NH2) [Ac-(1,2,3,6-4H-Bzl)Y-I-R-L-P-NH2], the Ki was less than 100 µM.

YLRFP-NH2 [Y-L-R-F-P-NH2] was tested, and the Ki was less than 100 µM.

In the case of YIRLAA-NH2 [Y-I-R-L-A-A-NH2], the Ki is reported as less than 100 µM.

Binder XIRLP (N-(3,3-DiMe-nBu) on Y1; C-term NH2) [(3,3-DiMe-nBu)Y-I-R-L-P-NH2] has a Ki of less than 100 µM.

With XIRLP (N-term Ac; N-(Cyclopropyl-CH2) on Y1; Y1=Y(SO3H); C-term NH2) [Ac-(Cyclopropyl-CH2)Y(SO3H)-I-R-L-P-NH2] the Ki was less than 100 µM.

XIRLP (N-term Ac; N-(3,3-DiMe-nPentyl) on Y1; Y1=Y(SO3H); C-term NH2) [Ac-(3,3-DiMe-nPentyl)Y(SO3H)-I-R-L-P-NH2] showed a Ki of less than 100 µM.

XIRLP (N-term Ac; N-(3,3-DiMe-nBu) on Y1; Y1=Y(SO3H); C-term NH2) [Ac-(3,3-DiMe-nBu)Y(SO3H)-I-R-L-P-NH2] was tested, and the Ki was less than 100 µM.

In the case of {(pOH)C6H4‑CH2CHOH‑CO}-IRLP-NH2 [(pOH)C6H4-CH2CHOH-CO-I-R-L-P-NH2], the Ki is reported as less than 100 µM.

B3: (pOH)C6H4-OCH(CH3)CO-I-R-L-P-NH2 (peptide)
peptide: {(pOH)C6H4‑OCH(CH3)CO}-IRLP-NH2
SMILES: CC[C@H](C)[C@H](NC(=O)C(C)Oc1ccc(O)cc1)C(=O)N[C@@H](CCCNC(=N)N)C(=O)N[C@@H](CC(C)C)C(=O)N1CCC[C@H]1C(N)=O
In the case of B3, the Ki is reported as less than 100 µM.

Work on {(pOH)C6H4‑OCH2CO}-IRLP-NH2 [(pOH)C6H4-OCH2CO-I-R-L-P-NH2] yielded a Ki of less than 100 µM.

Binder {Ph‑CH2CH2CH2‑CO}-IRLA-NH2 [Ph-CH2CH2CH2-CO-I-R-L-A-NH2] has a Ki of less than 100 µM.

NGYIRLIH-NH2 [N-G-Y-I-R-L-I-H-NH2] was tested, and the Ki was less than 100 µM.

XIRLP (N-(2-Et-nBu) on Y1; C-term NH2) [(2-Et-nBu)Y-I-R-L-P-NH2] showed a Ki of less than 100 µM.

For XIRLP (N-(2-Me-nBu) on Y1; C-term NH2) [(2-Me-nBu)Y-I-R-L-P-NH2], the Ki was less than 100 µM.

For YIRLAAFT-NH2 [Y-I-R-L-A-A-F-T-NH2], the Ki was less than 100 µM.

Binder Tfa-[(iBu)Y]I[Orn(N^δ-C3H7N)]LP-NH2 [Tfa-(iBu)Y-I-Orn(N^δ-C3H7N)-L-P-NH2] has a Ki of less than 100 µM.

XIRLP (N-term Ac; N-(2-Me-Bzl) on Y1; C-term NH2) [Ac-(2-Me-Bzl)Y-I-R-L-P-NH2] gave a Ki of less than 100 µM.

With XIRLP (N-term Ac; N-(1,2,3,6-4H-Bzl) on Y1; Y1=Y(SO3H); C-term NH2) [Ac-(1,2,3,6-4H-Bzl)Y(SO3H)-I-R-L-P-NH2] the Ki was less than 100 µM.

Work on YIRLP-NH2 [Y-I-R-L-P-NH2] yielded a Ki of less than 100 µM.

Binder XIRLP (N-(2-Me-nPentyl) on Y1; C-term NH2) [(2-Me-nPentyl)Y-I-R-L-P-NH2] has a Ki of less than 100 µM.

XIRLP (N-term Ac; N-(2,3-DiMe-nPentyl) on Y1; C-term NH2) [Ac-(2,3-DiMe-nPentyl)Y-I-R-L-P-NH2] gave a Ki of less than 100 µM.

WFREMGGGGG-NH2 [W-F-R-E-M-G-G-G-G-G-NH2] showed a Ki of less than 100 µM.

With XIRLP (N-term Ac; N-(2-Me-nPentyl) on Y1; Y1=Y(SO3H); C-term NH2) [Ac-(2-Me-nPentyl)Y(SO3H)-I-R-L-P-NH2] the Ki was less than 100 µM.

{4‑MeO‑C6H4‑CO}-IRLA-NH2 [4-MeO-C6H4-CO-I-R-L-A-NH2] gave a Ki of less than 100 µM.

For XIRLP (N-term Ac; N-(2Et-nBu) on Y1; C-term NH2) [Ac-(2Et-nBu)Y-I-R-L-P-NH2], the Ki was less than 100 µM.

XIRLP (N-term Ac; N-(2-CF3-Bzl) on Y1; C-term NH2) [Ac-(2-CF3-Bzl)Y-I-R-L-P-NH2] showed a Ki of less than 100 µM.

Tfa-YIRLP-NH2 [Tfa-Y-I-R-L-P-NH2] was tested, and the Ki was less than 100 µM.

Binder YIRIYERE-NH2 [Y-I-R-I-Y-E-R-E-NH2] has a Ki of less than 100 µM.

XIRLP (N-term Ac; N-(2-CF3-Bzl) on Y1; Y1=Y(SO3H); C-term NH2) [Ac-(2-CF3-Bzl)Y(SO3H)-I-R-L-P-NH2] showed a Ki of less than 100 µM.

For YIRLMEMT-NH2 [Y-I-R-L-M-E-M-T-NH2], the Ki was less than 100 µM.

In the case of YIRLPGLL-NH2 [Y-I-R-L-P-G-L-L-NH2], the Ki is reported as less than 100 µM.

XIRLP (N-term Ac; N-(Cyclopropyl-CH2) on Y1; C-term NH2) [Ac-(Cyclopropyl-CH2)Y-I-R-L-P-NH2] was tested, and the Ki was less than 100 µM.

YIRLTKMW-NH2 [Y-I-R-L-T-K-M-W-NH2] showed a Ki of less than 100 µM.

With YIRL-NH2 [Y-I-R-L-NH2] the Ki was less than 100 µM.

B4: I-H-L-W-y-I-R-L-P-NH2 (peptide)
peptide: IHLW[dY]IRLP-NH2
modifications: N-terminus assumed
SMILES: CC[C@H](C)[C@H](N)C(=O)N[C@@H](Cc1c[nH]cn1)C(=O)N[C@@H](CC(C)C)C(=O)N[C@@H](Cc1c[nH]c2ccccc12)C(=O)N[C@H](Cc1ccc(O)cc1)C(=O)N[C@H](C(=O)N[C@@H](CCCNC(=N)N)C(=O)N[C@@H](CC(C)C)C(=O)N1CCC[C@H]1C(N)=O)[C@@H](C)CC
For B4, the Ki was less than 100 µM.

IQLGYIRLP-NH2 [I-Q-L-G-Y-I-R-L-P-NH2] was tested, and the Ki was less than 100 µM.

In the case of SYIRLP-NH2 [S-Y-I-R-L-P-NH2], the Ki is reported as less than 100 µM.

With YRYPRDRN-NH2 [Y-R-Y-P-R-D-R-N-NH2] the Ki was less than 100 µM.

With YIRVMNHR-NH2 [Y-I-R-V-M-N-H-R-NH2] the Ki was less than 100 µM.

For XIRLP (N-(Chx-CH2) on Y1; C-term NH2) [(Chx-CH2)Y-I-R-L-P-NH2], the Ki was less than 100 µM.

{Ph‑CH═CH‑CO}-IRLA-NH2 [Ph-CH═CH-CO-I-R-L-A-NH2] gave a Ki of less than 100 µM.

[dTyr(Me)]IRLP-NH2 [y(Me)-I-R-L-P-NH2] showed a Ki of less than 100 µM.

With IHLWYIRLP-NH2 [I-H-L-W-Y-I-R-L-P-NH2] the Ki was less than 100 µM.

Binder XIRLP (Y1=Y(3,5-Br); C-term NH2) [Y(3,5-Br)-I-R-L-P-NH2] has a Ki of less than 100 µM.

For XIRLP (N-term Ac; N-(2-Me-Bzl) on Y1; Y1=Y(SO3H); C-term NH2) [Ac-(2-Me-Bzl)Y(SO3H)-I-R-L-P-NH2], the Ki was less than 100 µM.

[dNMeY]IRLP-NH2 [(Me)y-I-R-L-P-NH2] gave a Ki of less than 100 µM.

XIRLP (N-term Ac; N-(2-Me-nBu) on Y1; Y1=Y(SO3H); C-term NH2) [Ac-(2-Me-nBu)Y(SO3H)-I-R-L-P-NH2] gave a Ki of less than 100 µM.

With XIRLP (N-(2-CF3-Bzl) on Y1; C-term NH2) [(2-CF3-Bzl)Y-I-R-L-P-NH2] the Ki was less than 100 µM.

{Ph‑CH2CH2CO}-IRLA-NH2 [Ph-CH2CH2CO-I-R-L-A-NH2] showed a Ki of less than 100 µM.

With XIRLP (N-(2-Me-Bzl) on Y1; C-term NH2) [(2-Me-Bzl)Y-I-R-L-P-NH2] the Ki was less than 100 µM.
